This is an account of results in publication PMC4970670, “Mek1 Down Regulates Rad51 Activity during Yeast Meiosis by Phosphorylation of Hed1” (PLoS Genetics, 2016).

The target of this assay is T1, Rad51 (S. cerevisiae, UniProt P25454 1-400).
T1 construct: Rad51 recombinase of S. cerevisiae; Used as 0.6 ug of protein in the pull-down
T1 sequence (looked up): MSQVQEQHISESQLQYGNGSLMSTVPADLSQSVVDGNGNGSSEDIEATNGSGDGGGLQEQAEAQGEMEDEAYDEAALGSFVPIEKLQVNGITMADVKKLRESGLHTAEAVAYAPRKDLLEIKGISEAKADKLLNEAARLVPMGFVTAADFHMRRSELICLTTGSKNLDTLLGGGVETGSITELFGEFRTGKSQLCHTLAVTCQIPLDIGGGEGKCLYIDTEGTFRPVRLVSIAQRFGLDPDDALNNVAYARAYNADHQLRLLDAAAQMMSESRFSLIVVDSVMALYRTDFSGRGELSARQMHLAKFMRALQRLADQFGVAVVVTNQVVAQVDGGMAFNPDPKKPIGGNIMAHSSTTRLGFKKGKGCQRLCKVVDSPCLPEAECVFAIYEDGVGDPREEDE
Description: pull-down; GST-Hed1 WT or 3A (0.6 ug) incubated with Rad51 (0.6 ug), affinity pull-down with Glutathione Sepharose beads; supernatant, wash and SDS-eluate analysed by SDS-PAGE and Coomassie staining. Conditions: both partners purified.

Changes are numbered by the printed parent chain.

B1: GST-Hed1 (natural protein, S. cerevisiae, UniProt Q03937 1-162, looked up)
chain: MQQRSNRRSCSYIPLGVHNNAEKSLCTEVAPARKNKRSITTSPIVNINVVERRLFNLELEKQQLRAKNLSENTGGGSPNGGAYLDAKKGVREQDQYQGGPSKELDRLQPPPSMKKSPPRKKKSLKDLIYETNKTFYQVDSNKVKYKVGLSKKQLLPSKTVDN
notes: Hed1, meiosis-specific protein of S. cerevisiae; also called GST-Hed1 WT; recombinant GST-Hed1; source: E. coli, purified
In the case of B1, the binding result is recorded as “binds”.

B2: GST-Hed1-3A (natural protein, S. cerevisiae, UniProt Q03937 1-162, looked up)
chain: B1 chain with T40A, T41A, S42A
notes: Hed1, meiosis-specific protein of S. cerevisiae, with T40, T41 and S42 all substituted with alanine; source: E. coli, purified
On to B2, for which the binding result is reported as “binds”.
